assay: soluble on expression in E. coli; label from the status in PepcDB or PDB records

| Sequence | soluble on expression in E. coli |
| --- | --- |
| HMTELLKNHVAGQWIAGTGAGITLTDPVTGVALVRVSSEGLDLARAFSFAREDGGAALRALTYAQRAARLADIVKLLQAKRGDYYAIATANSGTTRNDSAVDIDGGIFTLSYYAKLGASLGEVHALRDGSAESLSKDRSFSAQHVLSPTRGVALFINAFNFPSWGLWEKAAPALLSGVPVIVKPATATAWLTQRMVADVVDAGILPPGALSIICGSSAGLLDQIRSFDVVSFTGSADTAATLRAHPAFVQRGARLNVEADSLNSAILCADATPDTPAFDLFIKEVVREMTVKSGQKCTAIRRAFVPEAALEPVLEALKAKLAKITVGNPRNDAVRMGSLVSREQYENVLAGIAALREEAVLAYDSSAVPLIDADANIAACVAPHLFVVNDPDNATLLHDVEVFGPVASVAPYRVTTDTNALPEAHAVALARRGQGSLVASIYSNDDAHLGRLALELADSHGRVHAISPSVQHSQTGHGNVMPMSLHGGPGRAGGGEELGGLRALAFYHRRSAIQAASAAIGTLTQATHWPAA | soluble |
| HNITRPIRSMSSTCREINKNKGNYRSYRFESVKRKDEIGQLAVTFESLLRNMDNYTKMEYTSKMSATLAHEIKNPIAGIRSGIQLLKGRAAKESDKMLCESMIKEVDRVTTLIMNLFTLSVKKESPKELISFEKVIGEIAMIYSKGAEGQGVVMETAVEEGLTGYLNENEFRQIAHNLISNSIKSVIPGIEGRIRISGRESGNKALIEFQDNGKGMSREELTRAMEPFYTKSINGIGIGLAIVKKLVEQNGGLMEMASACGEGTCVRLTFYRRVEDYEENISRG | not soluble |
| HNPIDLMREIGALRQRGYNDRQIGEKIGVSTEYVNMIAGLLEKGEERLVSAVETGVLPLNLAIEISKTDAKGAQKALMDAYTQNKLRGRKLALVRRLIQQRELRGPQLHSNPLGRKPPKRALTSEGLVRAYQQEATRQKLLIKKAELTQSRLMFVREAFRKLRAD | not soluble |
| HVHVVSNEILGLTNLLKDKKIKSKVIQFEVQFPTEEVAAHLSIDQKTPVYYVVRLRIVEGEPYVLEKTYMPTHLIPGINDDVLHDSIYNHITNVLQLKIAGTHRKIRACKSDHIDQQHLGCKQDDPILEVEHVGFLDTGIPFEYSFSRHRHDKFVVTSVNIRR | not soluble |
| HYNLKASNDAKIMKTLKEARQYEQSAKPTHIQQYFKHLGQMNYQIMTVDQKGHKTFYGEPFREDTLSQNAINNVLNNKDYHGIKDKPFALFVTGFFDNVTDNTVGINFKTKDGSIAVFMRPDIGETFSEFRT | not soluble |
| IDAPSFRDKRQADKLFEKDTMDWKVSINDKSIDYSQYKMPGKKGAFPYSNLDEQLAEYNELNGVYFSNGKRVELSELQATGTAKETHRVNSPLTKAKIAYLEMTDEERQLFMKWVSQQ | not soluble |
| IDRMDRFALRFRALQNQYEQHKSPMRGLCGMRAGLIPHQLFIAHEVGRRYAPRVLLADEVGLGKTIEAGMIIHQQVLSGRAERVLIVVPETLQHQWLVEMMRRFNLHFSIFDEERCVEAYADSENPFDTAQFVLCSLDFIRKSKRRFEQVVEADWDLLVVDEAHHLEWNQTKPSREYQVIEAIAEETPGVLLLTATPE | not soluble |
| IEETGTVIIAGIGRFGQIVNRLLVSNGVTTVVLDHQANQVDNMRQIGTRAYFGDATRPDMLHTAGIEHAAALVVAIDNQESSVELVKYVKHTYPKVKIIARAFDRGHGYLLRQAGADVIESETYHSALEMGGHAMKALGI | not soluble |
| IIAWLGPQLRELTPVDTNKDPKTRLQEFLQSRGCDLPRYEVVDIQGEPHCRTFFVDCEVALLSDKTHGHGGSRRIAEQVAAAAALVALGVENGHD | not soluble |
| IKATYETFSSPNGHGEGRGYLVMPQKKTIKSPTVLVIHENRGLNPYIKDVARRLAKDGFIAFAPDALYPLGGYPGNDDEGRAMQKEMDRAKIEQDFIAAAKFIKQHEHGNGK | not soluble |
| INFPILDEPLVLSNATILTIEDVSVYSSLVKHFYQYDVDEHLKLFDDKQKSLKATELMLVTDILGYDVNSAPILKLIHGDLENQFNEKPEVKSMVEKLAATITELIAFECLENELDLEYDEIKILELIKALGVKIETQSDTIFEKCFEIIQVYHYLTKKNLLVFVNSGAYLTKDEVIKLCEYINLMQKSVLFLEPRRLYDLPQYVIDKDYFLIGEN | not soluble |
| IRRNETTEADKQIPHYEREIIYQVLYDMKKEIADLKGMMNRLAHHEQPSWPVGSDVWGNDDKRTADPKWGVSTHKAPIANAAEPVEPIQEASEYTEDPVSLEEVEKKMISLALERHGGRRKQTAEELKISERTLYRKIKEYGLE | not soluble |
| IRSFATHAQLPISIVNREDDAFLNPNFRFIDHSIIGKNVPVADQSFRVGCSCASDEECMYSTCQCLDEMAPDSDEEADPYTRKKRFAYYSQGAKKGLLRDRVLQSQEPIYECHQGCACSKDCPNRVVERGRTVPLQIFRTKDRGWGVKCPVNIKRGQFVDRYLGEIITSEEADRRRAESTIARRKDVYLFALDKFSDPDSLDPLLAGQPLEVDGEYMSGPTRFINHSCDPNMAIFARVGDHADKHIHDLALFAIKDIPKGTELTFDYVNGLTGLESDAHDPSKISEMTKCLCGTAKCRGYLW | soluble |
| ISDTLNIQRKKIILYAPTFRDYNMQSIQLPFTEEQLIHQLKEEYVLFVKLHPAIQNNIDIKYSSDYIKDVSNYALFDLLMAADILITDYSSVPFEFSILNKPILFYTYDLKLYQQKRGLVDNYLSIIPGRACYDSESLINEIQTPFNYSKIKVFSDRWNKYSDGNSSQNLLNFIEN | not soluble |
| ISEFGSMNVILSIDQSTQSTKVFFYDEELNIVHSNNLNHEQKCLKPGWYEHDPIEIMTNLYNLMNEGIKVLKDKYTSVIIKCIGITNQRETVIIWDRITGKPLYNAIVWLDTRVEELVTEFSAKYNNNDIQKKTGTYFNTYFSAFKILWLIQNNPEIKQKIDDGTAVIGNINTWLIFNLTKGNCYTDVTNASRTLLMDINTLQWDEKMCKIFNITNMSVLPEIKSNCSNFGLVKSEHVPDYLNIPITGCIGDQQSACIGQAIFDEGEAKCTYGTGVFLLINTGEKVVYSTCGLITTICYKFNDNDKPKYALEGSIGTAGSGVSWLLKNKLIDDPSEASDIMEKCENTTGVIFVPAFSGLYAPRWRSDARASIYGMTFNTERSHIVRALLEGIAFQLNEIVDSLTSDMGIEMLHVLRCDGGMTKNKPFMQFNSDIINTKIEVSKYKEVTSLGAAVLAGLEVKIWDSLDSVKSLLRRSDAVFHSKMDDKKRKKKTSEWNKAVERTLIQL | soluble |
| ISLKYTAARLHEKGVLLEIEDLQVNQFKNVIFEISPTEEVGDFEVKAKFMGVQMETFMLHYQDLLQLQYEGVAVMKLFDRAKVNVNLLIFLLNKKFYGK | soluble |
| IVGGYNCKDGEVPWQALLINEENEGFCGGTILSEFYILTAAHCLYQAKRFKVRVGDRNTEQEEGGEAVHEVEVVIKHNRFTKETYDFDIAVLRLKTPITFRMNVAPASLPTAPPATGTKCLISGWGNTASSGADYPDELQCLDAPVLSQAKCEASYPGKITSNMFCVGFLEGGKDSCQGDSGGPVVCNGQLQGVVSWGDGCAQKNKPGVYTKVYNYVKWIKNTIAANS | soluble |
| KAGSAAAPFTKPFAVYKNVKFYLGDISHLVNCVSFDFVVNAANENLLHGGGVARAIDILTEGQLQSLSKDYISSNGPLKVGAGVMLECEKFNVFNVVGPRTGKHEHSLLVEAYNSILFENGIPLMPLLSCGIFGVRIENSLKALFSCDINKPLQVFVYSSNEEQAVLKFLDGLD | soluble |
| KALEEMHIPVDIITGTSMGAYVGGLYATGMSADEIESFIYSVDWNSGYRDRVDRSQRRVRDKEYEDRYQITTDLGLRFGEVRAPTGVVQGQNMLRVLRETTGNLGRFDSFDELAIPYRSVATDILELDEVVIGNGYLVDAMMASMSVPGALPPYKLNGHMLVDGGVVNNMPVDVARAMGADVVIAVDISTDYKTEDDFTGLFTVADQLSNYLVRRSTQQQVETLQEHDVYIRPNVGQMETVEFDKMPWAFQSGYDITREMESKLAGLRLSNAEYQKYIDHKQEVRKKLVYGDDRVVDEIVIVNNTHYS | not soluble |
| KAQKLNEQHQLILSKLLREEDNKYCADCEAKGPRWASWNIGVFICIRCAGIHRNLGVHISRVKSVNLDQWTAEQIQCMQDMGNTKARLLYEANLPENFRRPQTDQAVEFFIRDKYEKKKYYDKNAIAI | soluble |
